These results are taken from US20110263014.

One data set deals with T1, mNanog (D67G) (UniProt Q80Z64).
T1 sequence: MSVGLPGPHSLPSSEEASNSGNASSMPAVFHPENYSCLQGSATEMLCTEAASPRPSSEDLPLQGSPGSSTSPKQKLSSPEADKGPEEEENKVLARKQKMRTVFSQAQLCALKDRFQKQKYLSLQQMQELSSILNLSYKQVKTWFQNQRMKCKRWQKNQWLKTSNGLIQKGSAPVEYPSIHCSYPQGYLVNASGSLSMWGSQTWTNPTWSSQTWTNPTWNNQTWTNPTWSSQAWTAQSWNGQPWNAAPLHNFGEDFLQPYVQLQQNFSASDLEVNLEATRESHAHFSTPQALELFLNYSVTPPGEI

Another data set addresses T2, mouse Nanog (mNanog) (UniProt Q80Z64).
T2 sequence: T1 sequence with G67D

Substitutions are numbered along the chain they refer to.

Turning to recombinant caspase-9, the “cleavage of immunoprecipitated mNanog (D67G) by recombinant caspase” value in the data set with mNanog (D67G) is given as “Mutation D67G in mNanog greatly diminished cleavage of mNanog by caspase-9”. Moreover, in the data set with mouse Nanog (mNanog), the “cleavage of immunoprecipitated mNanog by recombinant caspase” value is reported as “Only caspase-9 effectively cleaved mNanog into a 27 kDa fragment” and the “in vitro caspase cleavage assay” value was “caspase-9 can effectively cleave in vitro-translated mNanog”.
